Where two headings read alike, the source gives them in different places. Positions of bridges follow the written chain, without caps; N, C: chain ends. Non-standard residues stand in square brackets, D forms with d. Residues, ends and D or L forms follow the SMILES beside them. Groups on a side chain read outwards from the residue. *: point of attachment. C18 diacid = O=C(O)CCCCCCCCCCCCCCCCC(=O)*; Dip = N[C@H](C(=O)O)C(c1ccccc1)c1ccccc1; Palmitoyl = CCCCCCCCCCCCCCCC(=O)*; β3hF = N[C@H](CC(=O)O)Cc1ccccc1; Isovaleryl = CC(C)CC(=O)*; LAc = not defined here; AEEA = NCCOCCOCC(=O)O; Ahx = NCCCCCC(=O)O
Legend:
[1] = target: ferroportin endogenously expressed on T47D cells (HTB 133, ATCC) (human) (UniProt Q9NP59); experiment: cell-based or functional assay
[2] = target: T1, human ferroportin (SLC40A1) fused in frame with GFP, stably expressed in HEK293 cells (human) (UniProt Q9NP59); experiment: cell-based or functional assay
T1 sequence (looked up): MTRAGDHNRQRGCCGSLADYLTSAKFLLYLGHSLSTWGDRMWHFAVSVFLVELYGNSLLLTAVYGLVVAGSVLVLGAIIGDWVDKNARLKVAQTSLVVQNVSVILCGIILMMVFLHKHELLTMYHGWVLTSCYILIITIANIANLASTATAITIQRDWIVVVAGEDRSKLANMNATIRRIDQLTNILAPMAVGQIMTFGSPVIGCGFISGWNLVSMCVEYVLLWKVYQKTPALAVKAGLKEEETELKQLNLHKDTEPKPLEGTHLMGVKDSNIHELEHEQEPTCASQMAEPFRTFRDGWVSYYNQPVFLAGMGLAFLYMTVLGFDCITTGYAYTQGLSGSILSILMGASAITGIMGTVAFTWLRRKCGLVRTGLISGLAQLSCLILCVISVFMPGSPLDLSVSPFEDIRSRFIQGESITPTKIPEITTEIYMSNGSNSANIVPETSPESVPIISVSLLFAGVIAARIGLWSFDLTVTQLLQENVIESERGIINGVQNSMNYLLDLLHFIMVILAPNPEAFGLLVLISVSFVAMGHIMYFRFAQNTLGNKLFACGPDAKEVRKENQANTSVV

ferroportin [3] = target: T2, ferroportin (Homo sapiens, UniProt Q9NP59); experiment: FPN activity assay: internalization/degradation of ferroportin-GFP in stably transfected HEK293 cells (loss of GFP fluorescence); format: cell-based; details: Table 6A; read-out: FPN EC50
T2 sequence (Q9NP59 1-571): T1 sequence (looked up)
Experimental: Following internalization, the ferroporin protein is degraded.
A retro inverse peptide is a peptide with a reversed sequence in all D amino acids. An example is that Hy-Glu-Thr-His-NH2 becomes Hy-DHis-DThr-DGlu-NH2. The EC50 of these reference compounds for ferroportin internalization/degradation was determined according to the FPN activity assay described above. These peptides served as control standards.

ferroportin [4] = target: T2, ferroportin; experiment: T47D cell-based ferroportin internalization assay in presence of mouse serum albumin (MSA), AF647 detection peptide, flow cytometry; set-up: a human breast carcinoma adherent cell line which endogenously expresses ferroportin; host or cells: T47D; details: second Table 6D, T47D/MSA data; with mouse serum albumin
Experimental: The potency of the peptides in causing ferroportin internalization was evaluated in a T47D cell-based assay. […] In this internalization assay, the potency of the test peptides was evaluated in presence of serum albumin which is the main protein component in the blood. T47D cells were maintained in RPMI media (containing required amount of fetal bovine serum) and regularly sub-cultured. […] The test peptide dilution series were allowed to incubate at room temperature for 30 min. Then the media was aspirated from the 96-well cell plate and test peptide dilution series were added. After 1 hr incubation, the media with test peptides was aspirated out and A1F647-conjugated detection peptide was added at fixed concentration of 200 nM. […] The cells were washed again after a 2 hr incubation in preparation for flow cytometry analysis. The Median Fluorescence Intensity (MFI) of the AF647-positive population was measured (after removing dead cells and non-singlets from the analysis). The MFI values were used to generate a dose-response curve and obtain IC50 potencies for the test peptides. The IC50 potencies were calculated by using 4-parameter non-linear fitting function in Graphpad Prism (Table 6D).

[5] = target: T3, ferroportin endogenously expressed on T47D cells (HTB 133, ATCC) (human, UniProt Q9NP59 1-571); experiment: cell-based or functional assay
T3 sequence (looked up): T1 sequence (looked up)

[6] = target: T4, human ferroportin (SLC40A1) fused in frame with GFP, stably expressed in HEK293 cells (human, UniProt Q9NP59 1-571); experiment: cell-based or functional assay
T4 sequence (looked up): T1 sequence (looked up)

[7] = target: T3, ferroportin endogenously expressed on …; experiment: cell-based or functional assay; remark: listed apart in the source
[8] = target: T4, human ferroportin (SLC40A1) fused in …; experiment: cell-based or functional assay; remark: listed apart in the source
[9] = target: T1, human ferroportin (SLC40A1) fused in frame with GFP, stably expressed in HEK293 cells (human); experiment: cell-based or functional assay; remark: listed apart in the source

Work on “Isovaleric Acid-K-T-H-[Dpa]-P-E-[bhPhe]-[Lys(Ahx_Palm)]-NH2 (peptide)” yielded a T47D MSA IC50 [1] of 15.6 nM.

For “RI-Mini Hepcidin: Hy-DPhe-DIle-DCys-DIle-DPro-DPhe-DHis-DThr-DAsp-NH2 (peptide)”, the Potency EC50 (nM) [2] was over 10000 nM.

With CC[C@H](C)[C@H](NC(=O)[C@H](C)NC(=O)[C@@H]1CCCN1C(=O)[C@@H](NC(=O)[C@H](Cc1c[nH]cn1)NC(=O)[C@@H](NC(=O)[C@H](CCC(=O)O)NC(=O)CC(C)C)[C@@H](C)O)C(c1ccccc1)c1ccccc1)C(=O)N[C@@H](CCCCNC(=O)COCCOCCNC(=O)COCCOCCNC(=O)CCCCCNC(=O)CCCCCCCCCCCCCCCCC(=O)O)C(=O)N[C@H](CC(N)=O)Cc1ccccc1 [compound 76] (Isovaleryl-ETH[Dip]PAIK([AEEA-AEEA-Ahx-C18 diacid])[β3hF]-NH2) the DC50 (ferroportin [3]) was 150 nM and the IC50 (ferroportin [4]) was 143 nM.

“Isovaleric Acid-K-T-H-[Dpa]-P-E-[Lys(Ahx_Palm)]-NH2 (peptide)” showed a T47D MSA IC50 [1] of 101 nM.

“Isovaleric Acid-Dap-T-H-[Dpa]-P-A-I-E-[bhPhe]-[Lys(Ahx_Palm)]-R-NH2 (peptide)” was tested, and the T47D MSA IC50 [1] was 36.4 nM.

CCCCCCCCCCCCCCCC(=O)NCCCCCC(=O)NCCCC[C@H](NC(=O)[C@@H]1CCC(=O)NCCCC[C@H](NC(=O)CC(C)C)C(=O)N[C@@H]([C@@H](C)O)C(=O)N[C@@H](Cc2c[nH]cn2)C(=O)N[C@@H](C(c2ccccc2)c2ccccc2)C(=O)N2CCC[C@H]2C(=O)N[C@@H](C)C(=O)N[C@@H]([C@@H](C)CC)C(=O)N1)C(N)=O [compound 309] (Isovaleryl-KTH[Dip]PAIEK([Ahx-Palmitoyl])-NH2; lactam 1-8) showed an IC50 (ferroportin [4]) of 31.2 nM.

Isovaleryl-ETH[Dip]K([Ahx-Palmitoyl])-N_Butyl_Phe [Isovaleric Acid-E-T-H-[Dpa]-[Lys(Ahx_Palm)]-N_Butyl_Phe] was tested, and the “T47D IC50” value [5] was 464 nM and the “FPN IC50” value [6] was 62.2 nM.

Isovaleryl-K(LAc)TH[Dip]PAIK([Ahx-Palmitoyl])[β3hF]-NH2 (reading uncertain) [Isovaleric Acid-[Lys(LAc-T-H-[Dpa]-P-A-I-[Lys(Ahx_Palm)]-[bhPhe]-NH2] was tested, and the “T47D IC50” value [5] was 284 nM and the “FPN IC50” value [6] was 27.5 nM.

Isovaleryl-K(Glu)TH[Dip]PAIK([Ahx-Palmitoyl])[β3hF]-NH2 [Isovaleric Acid-[Lys(Glu-T-H-[Dpa]-P-A-I-[Lys(Ahx_Palm)]-[bhPhe]-NH2] was tested, and the “T47D IC50” value [5] was 229 nM and the “FPN IC50” value [6] was 27 nM.

In the case of Isovaleryl-ETH[Dip]PA[dK](Gal)K([Ahx-Palmitoyl])[β3hF]-NH2 [Isovaleric Acid-E-T-H-[Dpa]-P-A-d[Lys(Gal-[Lys(Ahx_Palm)]-[bhPhe]-NH2], the “T47D IC50” value [7] is reported as 4.05 nM and the “FPN IC50” value [8] is reported as 30.6 nM.

With Isovaleryl-ETH[Dip]PK(Gal)IK([Ahx-Palmitoyl])[β3hF]-NH2 [Isovaleric Acid-E-T-H-[Dpa]-P-[Lys(Gal-I-[Lys(Ahx_Palm)]-[bhPhe]-NH2] the “T47D IC50” value [7] was 35.5 nM and the “FPN IC50” value [8] was 14.3 nM.

With H-DTHFPICIF-NH2 (peptide, from a related filing) [Mini-Hepcidin 1-9: Hy-…-NH2] the Potency EC50 [9] was 712 nM.

Isovaleryl-ETH[Dip]PAK(Gal)K([Ahx-Palmitoyl])[β3hF]-NH2 [Isovaleric Acid-E-T-H-[Dpa]-P-A-[Lys(Gal-[Lys(Ahx_Palm)]-[bhPhe]-NH2] was tested, and the “T47D IC50” value [7] was 19.1 nM and the “FPN IC50” value [8] was 42 nM.
